Assay results as given in publication PMC3775802.

How the values were obtained:
[1] = molecular target: T1, human alpha-thrombin (THR) (Homo sapiens) (UniProt P00734+P00734); experiment: competition (SPRi, free thrombin quantification); details: 5' amino modifier C6 as ordered; 20 mM Tris-HCl pH 7.4, 1 mM MgCl2, 120 mM NaCl, 10 mM KCl; thrombin co-injected with 500 nM cytochrome c; binding temperature not stated
[2] = molecular target: T1, human alpha-thrombin (THR) (Homo sapiens); experiment: back-scattering interferometry; details: 5' amino modifier C6 as ordered; 20 mM Tris-HCl pH 7.4, 1 mM MgCl2, 120 mM NaCl, 10 mM KCl; thrombin co-injected with 500 nM cytochrome c; binding temperature not stated; cited from earlier work

In the case of “TTTTTTTTTTAGTCCGTGGTAGGGGAGGTTGGGGTGACT [APT (anti-thrombin aptamer), solution competitor]”, the Kd [1] is given as 3.16 nM and the Kd [2] is given as 3.84 nM.
